Experiment [1] addresses T1, IL-17A (UniProt Q16552 24-155). Kind of experiment: cell-based or functional assay.
The target in experiment [2] is T1, IL-17A. Kind of experiment: SPR; IL-17A amine-coupled to a CM5 chip (110-270 RU); chimeric peptides 1000 nM to 15.5 nM flowed in HBS-EP+; steady state fitting. To be noted: both partners purified.
A further experiment addresses T2, mouse serum albumin (mouse, UniProt P07724 25-608).
T2 construct: mouse serum albumin; also called MSA
Kind of experiment: SPR; HSA or MSA amine-coupled to a CM5 chip (110-270 RU); peptides 1000 nM to 15.5 nM flowed in HBS-EP+; multi-cycle kinetics, 1:1 binding model. The settings on record: both partners purified. In general terms: Surface plasmon resonance follows binding to a sensor surface in real time, without labels.

The next experiment addresses T3, human TNFα (Homo sapiens, UniProt P01375).
T3 construct: human tumour necrosis factor alpha, UniProt P01375
Kind of experiment: SPR; Biacore 8K+, multi-cycle kinetics, 25°C; Fab captured by immobilised anti-human Fab antibodies; serial dilutions of TNFα injected in HBS-EP+; 1:1 binding model. To be noted: both partners purified.

Primed or numbered codes have the meaning given here. Where no end group is shown, it is not given here. [ ]: non-standard residue; d: D form. PEG2′ = diethylene glycolate linker

T2 sequence (P07724 25-608): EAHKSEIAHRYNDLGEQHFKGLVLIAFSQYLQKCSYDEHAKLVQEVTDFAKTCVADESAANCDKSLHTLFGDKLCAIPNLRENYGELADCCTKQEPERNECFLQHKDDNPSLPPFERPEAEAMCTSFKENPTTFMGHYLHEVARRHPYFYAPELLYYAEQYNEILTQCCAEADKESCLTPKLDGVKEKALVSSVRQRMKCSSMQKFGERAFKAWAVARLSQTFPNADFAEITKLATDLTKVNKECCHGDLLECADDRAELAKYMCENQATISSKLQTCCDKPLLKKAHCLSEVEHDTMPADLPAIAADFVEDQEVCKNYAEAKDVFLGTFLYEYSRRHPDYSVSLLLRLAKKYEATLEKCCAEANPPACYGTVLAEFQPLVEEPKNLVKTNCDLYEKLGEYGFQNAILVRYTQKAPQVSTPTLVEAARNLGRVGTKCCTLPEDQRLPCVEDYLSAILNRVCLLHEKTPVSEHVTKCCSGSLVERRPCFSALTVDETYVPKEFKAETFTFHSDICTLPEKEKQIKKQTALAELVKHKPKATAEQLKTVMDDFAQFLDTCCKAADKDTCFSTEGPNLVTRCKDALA
T3 sequence (P01375 whole entry): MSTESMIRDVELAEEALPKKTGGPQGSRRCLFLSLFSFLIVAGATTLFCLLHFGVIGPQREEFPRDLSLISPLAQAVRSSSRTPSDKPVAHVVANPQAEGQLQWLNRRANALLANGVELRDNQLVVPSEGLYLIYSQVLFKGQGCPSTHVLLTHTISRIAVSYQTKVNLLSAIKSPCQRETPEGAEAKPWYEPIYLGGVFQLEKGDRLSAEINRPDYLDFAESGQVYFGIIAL
T1 sequence (Q16552 24-155): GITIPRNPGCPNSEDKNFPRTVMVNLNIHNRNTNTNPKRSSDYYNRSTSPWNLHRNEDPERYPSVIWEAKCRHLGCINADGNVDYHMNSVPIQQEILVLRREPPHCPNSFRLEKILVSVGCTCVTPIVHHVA

B1: aMSA-HAP chimeric peptide (peptide)
chain: IHVTIPADLWDWINK[PEG2′]TCPDGQRDRGGCSGPYSCGGDNCCAYAAASVYRGYSCKDTYEW
modifications: disulfide (positions not given here); not fully specified
For B1, the “IC50 of inhibition of IL-6 release from human dermal fibroblasts stimulated with IL-17A and TNFα (blocks IL-17A with IL-17RA)” value with IL-17A [1] came to 38 nM. Binding in the experiment with IL-17A [2] was characterised by a dissociation constant (Kd) of 275 nM. In the experiment with mouse serum albumin, this molecule yielded a Kd of 370 nM, an off-rate constant (koff) of 0.00166 s⁻¹ and a kon of 4500 M⁻¹ s⁻¹.

B2: FabT (Fab, V domains shown)
VH: EVQLVESGGGLVKPGGSLRLSCAASGYTFTDNYIHWVRQAPGKGLEWIGYINPSSAYAHYNEKFKTRFTISVDKAKNSAYLQMNSLRAEDTAVYYCTRRYYSAMPFAYWGQGTLVTVSS
VL: DIQMTQSPSSLSASVGDRVTITCRASEDIYSGLAWYQQKPGKVPKLLIYDSSTLHTGVPSRFSGTGSGTDYTLTISSLQPEDVATYFCQQNYDFPLTFGQGTKLEIK
notes: humanised VH with human gamma1 CH1; humanised VL with human C kappa; also called parent FabT; unmodified FabT fragment; source: CHO-S XE, transient, purified (Protein G, SEC)
In the experiment with human TNFα, B2 gave a Kd of 0.221 nM, a koff of 9.9e-05 s⁻¹ and a kon of 447000 M⁻¹ s⁻¹.

As usually defined, the Kd is the constant that tells how readily two partners part at equilibrium. A low value points to tighter binding. Broadly, the koff is the first-order rate constant of dissociation. As a reminder, the kon is the rate constant with which the complex forms.

These data come from paper PMC10213618 (Frontiers in Immunology, 2023).
